According to patent publication US9856300B2, “Dpy-30 binding peptides and methods of use” (Marquette University, priority 2011, dated 2018):
No end group written: not given here.

How the values were obtained:
Dpy-30 D/D (a.a. #49-99) = target: T1, Dpy-30 D/D (a.a. #49-99) (Homo sapiens, UniProt Q9C005); experiment: Ni-NTA pulldown of GST-hAsh2 peptides with His-Dpy-30 D/D; assay type: binding; settings: His-Dpy-30 D/D a.a. #49-99 co-expressed
T1 construct: His-Dpy-30 D/D (a.a. #49-99) was co-expressed with GST-hAsh2593-623; made in house; host or cells: E. coli BL21(DE3)
T1 sequence (Q9C005 49-99): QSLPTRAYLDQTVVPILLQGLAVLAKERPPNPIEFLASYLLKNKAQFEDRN
Source text: To differentiate if the interaction is via the Dpy-30 domain or the N-terminal fragment, His-Dpy-30 D/D (a.a. #49-99) was co-expressed with GST-hAsh2593-623 (FIG. 11C). To define the N-terminal end of Dpy-30 D/D binding site in hAsh2, W599 in the first potential ΦΦXX motif was mutated into P to disrupt helicity, an approach to abolish D/D-binding (Carr et al., 1982; Burns-Hamuro et al., 2003). […] Thus, the site that directly binds Dpy-30 D/D resides within hAsh2600-617 that is after W599 and contains four ΦΦXX-like motifs, even though an acidic residue occupies a supposedly hydrophobic position in the last motif, VETE (SEQ ID NO:35). The affinity may be further enhanced by adjacent sequences (Burns-Hamuro et al., 2003; Banky et al., 2003).
(§1) All expression constructs were transformed or co-transformed into BL21(DE3) cells. The colonies were selected based on the antibiotic-resistant gene in each plasmid. The cultures were induced with 1 mM IPTG overnight at 18° C. The cell pellet from a 5-ml culture was resuspended in 750-μl lysis buffer supplemented with Complete Mini EDTA-free protease inhibitor cocktail tablets (Roche) and the suspension was sonicated on ice using Branson digital Sonifier until clarified (Emerson Industrial Automation). The sonicated mixtures were centrifuged at 4° C., 12,000 rpm for 25 min. The supernatant or combinations of supernatants as indicated were incubated with ˜100 μl Ni-NTA (Qiagen or Clontech) or Glutathione Sepharose 4B (Amersham Biosciences) for 1 hour at room temperature. The matrix was subsequently washed as instructed by manufacturers, unless indicated otherwise.
(§2) Bacterial extract, flow through and eluate in 1× Laemmli samples buffer were boiled for 5 min. In general, 10 μl samples were loaded in each lane in 4-20% precast acrylamide gels (Bio-Rad or DGEL Electrosystem, Canada) or 14% manually cast gels.

Dpy-30 [1] = target: T2, Dpy-30 (Homo sapiens, UniProt Q9C005); experiment: Ni-NTA pulldown of GST-hAsh2 peptides with His-Dpy-30; assay type: binding; set-up: Dpy-30 fragments, full length or a.a.#49-99, were amplified using purchased IMAGE cDNA clone #4081996 as a template; made in house; host or cells: E. coli BL21(DE3); key to co-purified with Dpy-30: “+” or “−” indicates if the peptides were or were not evidently co-purified with Dpy-30; “+” or “−” indicates if the peptides were or were not evidently co-purified with Dpy-30; settings: GST-fused hAsh2 peptides, Ni-NTA pulldown, Coomassie-stained SDS-PAGE
T2 sequence (Q9C005 whole entry, the tested form may be a part): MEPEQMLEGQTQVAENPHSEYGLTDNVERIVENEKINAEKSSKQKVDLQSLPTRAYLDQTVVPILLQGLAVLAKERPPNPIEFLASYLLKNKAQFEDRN
Source text: To test this, we performed pull down assays for His-Dpy-30 and GST-hAsh2593-623. The human Ash2 fragment contains a helix with two typical and three atypical ΦΦXX motifs. The hAsh2 DNA was fused downstream to GST DNA by PCR and the product was cloned into an expression vector. Three clones—#9 and #14 with the expected in-frame fusion and #6 with an out-of-frame fusion—were expressed in bacteria. Their extract was mixed with equal volume of bacterial extract with His-Dpy-30; and the mixture was subjected to Ni-NTA purification. […] Thus hAsh2593-623 interacts with Dpy-30 specifically.
Table 3 illustrates the protein sequences of hAsh2's C-terminal region (hAsh2593-623) and its variants, where “+” or “−” indicates if the peptides were or were not evidently co-purified with Dpy-30. The shorter fusion protein GST-hAsh2593-617 that terminated right after the last possible ΦΦXX-like motif, VETE (SEQ ID NO:35), in the helix was also co-purified with His-Dpy-30 (FIG. 11B, arrow and double arrowheads), no matter expressed separately or co-expressed. Both polypeptides were depleted in the flow through of Ni-NTA matrix (Post in FIG. 11B) and retained in the eluate.
as §1, §2

Dpy-30 [2] = target: T2, Dpy-30; experiment: Ni-NTA pulldown of GST-tagged RSP3 peptides with His-tagged human Dpy-30 protein; assay type: binding; set-up: made in house; host or cells: E. coli BL21(DE3), co-expressed with the GST-RSP3 peptides; settings: full-length human His-Dpy-30 co-expressed with GST-RSP3 peptide
Source text: (§3) Based on the phenotypes of RSP3 transgenic strains (FIG. 4), an in vitro approach was taken to test that RSP3269-316 contains a Dpy-30 domain binding site. RIIa-binding AHs are 14-18-a.a. long. Some of AHs are clearly comprised of ΦΦXX repeats in which the first two residues are hydrophobic residues (Φ) positioned to interact with complementary residues at the binding grooves of the RIIa domain (Burns-Hamuro et al., 2003; Kinderman et al., 2006; Sarma et al., 2010), whereas for the other RIIa-binding AHs the repeats are not as evident (Gold et al., 2006; Gaillard et al., 2001). Typical ΦΦXX repeats were noted within the Dpy-30 binding fragment in BIG1 at the trans-Golgi network but were not tested yet (Xia et al., 2010). For RSP3269-316, typical and degenerate ΦΦXX repeats are present throughout this region, thus the precise Dpy-30 binding site was determined objectively by Ni-NTA pulldown. As a control, the His-tagged RIIa domain from RSP7 was co-expressed with the GST-tagged RSP396-180 that harbors AHR at a.a.#161-178 (Gaillard et al., 2001; FIG. 3) and both polypeptides were co-purified by Ni-NTA (FIG. 7A). Various Dpy-30 domain containing RSP2 and RSP23 polypeptides were tested but were not compatible for this assay due to poor expression or precipitation propensity. Therefore we used the His-tagged human Dpy-30 protein for Ni-NTA pulldown instead. As expected, both GST-RSP3245-316 and GST-RSP3269-316 were co-purified with His-Dpy-30 by Ni-NTA (FIGS. 7B and 7C). In contrast, the GST control was not co-purified (FIG. 7D).
The experiments were further conducted on smaller segments within a.a.#269-316. GST-RSP3280-316 and GST-RSP3280-308, but not GST-RSP3280-306, were also pulled down by His-Dpy-30 (FIG. 7E, left panel). […] To ensure that the co-purification occurs through the Dpy-30 domain rather than its flanking sequence, the same experiment was conducted with the Dpy-30 domain only (Dpy-3045-99, Wang et al., 2009). The results from the experiments using Dpy-30 domain alone or full-length Dpy-30 protein were similar (FIG. 7E, right panel). Based on the similar dimensions of the RIIa and Dpy-30 domains (FIG. 1), we tested if the Dpy-30 binding peptide is centered on the 18-a.a. helix at the a.a.#291-308 by mutating V300 in the middle of the region into P, a strategy used to study AHR (Gaillard et al., 2001; Carr et al., 1992). […] RSP3291-308.
For Ni-NTA (Qiagen) affinity co-purification, GST-tagged RSP3 constructs and His-tagged HDpy-30 constructs were co-transformed into BL21(DE3) cells. The recombinant proteins were induced using 1 mM IPTG overnight at 16° C. Following induction, the cell pellet from a 5-ml culture was resuspended in 750 μl lysis buffer and sonicated using Branson digital Sonifier (Emerson Industrial Automation). The sonicated mixtures were centrifuged at 4° C., 12,000 rpm for 25 min. The supernatant was incubated with 100 μl Ni-NTA for 1 hour at room temperature. The matrix was subsequently washed thrice and elution was carried out as instructed by the manufacturer.

RIIa domain from RSP7 = experiment: Ni-NTA pulldown with His-tagged RIIa domain from RSP7; assay type: binding, Chlamydomonas; settings: co-expressed in bacteria
Source text: as §3
Based on the structural similarity, we tested for the cross-recognition of His-Dpy-30 and AHR (GST-RSP3g); and RSP7's RIIa and AHD (GST-RSP3280-308) by the described Ni-NTA pulldown assay. […] Thus Dpy-30 that has a deep pocket from an additional α-helix recognizes both AHR and AHD, whereas RSP7's RIIa, as PKA's RII, only binds RSP3's AHR(Gaillard et al., 2001). […]

Substance | co-purification with the Dpy-30 domain (Dpy-30 D/D (a.a. #49-99)) | co-purified with Dpy-30 (Dpy-30 [1]) | co-purification / pulldown with His-Dpy-30 (Dpy-30 [2]) | co-purification / pulldown with His-RIIa from RSP7 (RIIa domain from RSP7)
PMSDMGPGAVVEHTLADVLYHVETEVDGRRS [W500P] | still co-purified | − |  | 
PMSDMGWGAVVEHTLADVLYH------GRRS (PMSDMGWGAVVEHTLADVLYHGRRS; also: GST fusion) [Δ614-619, GST-hAsh2593-623 with VETEVD deleted] | abolished the co-purification | − |  | 
GST-RSP3280-316: GST-tagged Chlamydomonas RSP3 fragment a.a. 280-316 (PWLKEQAIGYLARGVVARRVVDKLVEDAAAALAANRS; also: GST tag) |  |  | pulled down | 
PMSDMGWGAVVEHTLAD----------GRRS (PMSDMGWGAVVEHTLADGRRS; also: GST fusion) [Δ610-619, GST-hAsh2593-623 with a.a. #610-619 deleted] | abolished the co-purification | − |  | 
GST-RSP3280-308: GST-tagged RSP3 fragment a.a. 280-308, the Dpy-30-binding amphipathic helix AHD (PWLKEQAIGYLARGVVARRVVDKLVEDAA; also: GST-tagged (fusion)) |  |  | pulled down | did not significantly pull down
GST-RSP3280-306: GST-tagged Chlamydomonas RSP3 fragment a.a. 280-306 (PWLKEQAIGYLARGVVARRVVDKLVED; also: GST tag) |  |  | not | 
